Type in all cases: biochemical
Data set [1] deals with CN(C)c1ccc2c(c1)Oc1cc(N(C)C)ccc1C21OC(=O)c2cc(C(=O)NCC[C@H](NC(=O)[C@H](CC3CCCCC3)NC(=O)N3CCOCC3)C(=O)NCCNC(=O)c3ccc(-c4c5ccc(=O)cc-5oc5cc(O)ccc45)c(C(=O)O)c3)ccc21. Description: in vitro activity assay (fluorescence, substrate cleavage) with Cath B. Particulars: other: Cath B; measurement performed at pH 5.5; pH 5.5; 37.0 °C. The procedure:
(§1) […] The substrates were solved in DMSO and added to enzyme solution with a final concentration of 50 μM.
(§2) Fluorescence was measured with an Tecan SAFIRE II spectrometer (excitation wavelength: 336 nm; emission wavelength: 490 nm; excitation band: 10.0 nm; emission band: 10.0 nm; amplification (manual): 90).

In data set [2] the test system is CN(C)c1ccc(/N=N/c2ccc(C(=O)NCCCC[C@H](NC(=O)[C@H](CCC(=O)NCCNc3cccc4c(S(=O)(=O)O)cccc34)NC(=O)[C@H](CC3CCCCC3)NC(=O)N3CCOCC3)C(=O)O)cc2)cc1. The description is as above. Particulars: other: Cath B; measurement performed at pH 7.5; pH 7.5; 37.0 °C. The method, then: as §1, §2
Data set [3] deals with CN(C)c1ccc2c(c1)Oc1cc(N(C)C)ccc1C21OC(=O)c2cc(C(=O)NCC[C@H](NC(=O)[C@H](CC3CCCCC3)NC(=O)N3CCOCC3)C(=O)NCCNC(=O)c3ccc(-c4c5ccc(=O)cc-5oc5cc(O)ccc45)c(C(=O)O)c3)ccc21. Put plainly: in vitro activity assay (fluorescence, substrate cleavage) with Cath L. Particulars: other: Cath L; measurement performed at pH 5.5; pH 5.5; 37.0 °C. The method, then: as §1, §2
Data set [4] concerns CN(C)c1ccc(/N=N/c2ccc(C(=O)NCCCC[C@H](NC(=O)[C@H](CCC(=O)NCCNc3cccc4c(S(=O)(=O)O)cccc34)NC(=O)[C@H](CC3CCCCC3)NC(=O)N3CCOCC3)C(=O)O)cc2)cc1. The data set is described as above. Particulars: other: Cath L; measurement performed at pH 7.5; pH 7.5; 37.0 °C. The method, then:
as §1, §2

Usually Km stands for the concentration of substrate that gives half-maximal velocity. In general, Vmax refers to the rate approached at saturating substrate. One may read the kcat as the maximal rate divided by the concentration of active sites. As usually defined, the kcat/Km is the turnover number divided by the Michaelis constant.

Chain of Cath L (Homo sapiens) (chain, as listed by the source): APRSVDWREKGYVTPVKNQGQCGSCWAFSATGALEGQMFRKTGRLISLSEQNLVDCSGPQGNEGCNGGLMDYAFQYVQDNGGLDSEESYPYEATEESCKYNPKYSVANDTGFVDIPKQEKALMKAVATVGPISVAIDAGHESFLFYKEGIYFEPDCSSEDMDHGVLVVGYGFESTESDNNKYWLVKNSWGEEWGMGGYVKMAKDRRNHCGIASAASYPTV

Turning to Cath B (Homo sapiens), in data set [1], the Km came out at 0.88 mM, the Vmax came to 0.156 µmol/min and the catalytic constant (kcat) turned out to be 0.25 s⁻¹. For the same substance, in data set [2], the Km was found to be 0.12 mM, the Vmax was 0.006 µmol/min and the catalytic efficiency (kcat/Km) came to 250 M⁻¹ s⁻¹.

Turning to Cath L (Homo sapiens), in data set [3], the Michaelis constant (Km) was 7.1 mM, the maximum rate (Vmax) is 0.582 µmol/min and the kcat came to 3.01 s⁻¹. In data set [4], the Km turned out to be 8.3 mM, the Vmax was 0.27 µmol/min, the kcat came to 1.26 s⁻¹ and the kcat/Km is 152 M⁻¹ s⁻¹.

The values above are taken from patent US8771644B2, “Imaging probes” (Sanofi, priority 2007, dated 2014).
